According to IntAct's records for PubMed 29039417:

B1: Protein PTHB1 (Homo sapiens), Q3SYG4 (parent)
chain: MSLFKARDWWSTILGDKEEFDQGCLCLANVDNSGNGQDKIIVGSFMGYLRIFSPHPAKTGDGAQAEDLLLEVDLRDPVLQVEVGKFVSGTEMLHLAVLHSRKLCVYSVSGTLGNVEHGNQCQMKLMYEHNLQRTACNMTYGSFGGVKGRDLICIQSMDGMLMVFEQESYAFGRFLPGFLLPGPLAYSSRTDSFLTVSSCQQVESYKYQVLAFATDADKRQETEQQKLGSGKRLVVDWTLNIGEQALDICIVSFNQSASSVFVLGERNFFCLKDNGQIRFMKKLDWSPSCFLPYCSVSEGTINTLIGNHNNMLHIYQDVTLKWATQLPHIPVAVRVGCLHDLKGVIVTLSDDGHLQCSYLGTDPSLFQAPNVQSRELNYDELDVEMKELQKIIKDVNKSQGVWPMTEREDDLNVSVVVSPNFDSVSQATDVEVGTDLVPSVTVKVTLQNRVILQKAKLSVYVQPPLELTCDQFTFEFMTPDLTRTVSFSVYLKRSYTPSELEGNAVVSYSRPTDRNPDGIPRVIQCKFRLPLKLICLPGQPSKTASHKITIDTNKSPVSLLSLFPGFASQSDDDQVNVMGFHFLGGARITVLASKTSQRYRIQSEQFEDLWLITNELILRLQEYFEKQGVKDFACSFSGSIPLQEYFELIDHHFELRINGEKLEELLSERAVQFRAIQRRLLARFKDKTPAPLQHLDTLLDGTYKQVIALADAVEENQGNLFQSFTRLKSATHLVILLIALWQKLSADQVAILEAAFLPLQEDTQELGWEETVDAAISHLLKTCLSKSSKEQALNLNSQLNIPKDTSQLKKHITLLCDRLSKGGRLCLSTDAAAPQTMVMPGGCTTIPESDLEERSVEQDSTELFTNHRHLTAETPRPEVSPLQGVSE
partner: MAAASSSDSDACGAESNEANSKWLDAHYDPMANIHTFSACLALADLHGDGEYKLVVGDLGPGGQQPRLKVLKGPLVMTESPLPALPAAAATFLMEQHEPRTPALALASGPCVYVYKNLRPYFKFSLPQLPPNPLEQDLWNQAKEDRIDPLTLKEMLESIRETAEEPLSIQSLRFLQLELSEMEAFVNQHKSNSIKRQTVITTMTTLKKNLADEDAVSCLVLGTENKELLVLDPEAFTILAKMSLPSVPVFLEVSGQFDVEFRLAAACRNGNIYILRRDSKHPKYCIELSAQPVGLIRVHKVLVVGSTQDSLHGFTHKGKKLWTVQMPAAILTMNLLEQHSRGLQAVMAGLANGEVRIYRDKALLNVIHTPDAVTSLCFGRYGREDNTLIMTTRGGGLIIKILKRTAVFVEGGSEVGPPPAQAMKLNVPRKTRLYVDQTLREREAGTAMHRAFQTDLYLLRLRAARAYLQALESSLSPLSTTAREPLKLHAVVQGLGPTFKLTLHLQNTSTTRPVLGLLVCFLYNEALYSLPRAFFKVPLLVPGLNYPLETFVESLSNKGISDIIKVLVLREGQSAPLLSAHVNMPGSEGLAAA

Variants of: B1
Conditions: with bbs1_human BBS1, Q8NFJ9

Variant | effect of a mutation on the interaction
I735E | with no effect
I735K | disrupting interaction strength
I735A | with no effect
L727K | with no effect
L727A | with no effect
L727E | with no effect
Q748E | with no effect
Q748A | with no effect
Q748K | with no effect
H732A | with no effect
H732K | with no effect
H732E | with no effect
W768E | with no effect
W768K | with no effect
W768A | with no effect
V734K | with no effect
V734E | with no effect
V734G | disrupting interaction strength
V734A | with no effect
L733A | disrupting interaction strength
L733K | with no effect
L733E | with no effect
E753A | with no effect
E753K | disrupting interaction strength
N719E | with no effect
N719A | with no effect

Variant | effect of a mutation on the interaction
N719K | with no effect
L744K | with no effect
L744A | with no effect
L744E | with no effect
Q764K | with no effect
Q764E | with no effect
Q764A | with no effect
A755K | with no effect
A755E | with no effect
P758E | with no effect
P758K | with no effect
P758A | with no effect
A710E | with no effect
A710K | with no effect
S729E | with no effect
S729K | with no effect
S729A | with no effect
K743A | with no effect
K743E | with no effect
W741S | disrupting interaction strength
W741K | with no effect
W741E | with no effect
W741A | with no effect
A750E | with no effect
A750K | with no effect
L752A | with no effect

Variant | effect of a mutation on the interaction
L752E | with no effect
L752K | with no effect
Q742A | with no effect
Q742L | disrupting interaction strength
Q742E | with no effect
Q742K | with no effect
Q717A | with no effect
Q717K | with no effect
Q717E | with no effect
F756A | with no effect
F756K | with no effect
F756E | with no effect
A730K | with no effect
A730E | with no effect
E761A | with no effect
E761K | with no effect
L740K | with no effect
L740E | with no effect
L740A | with no effect
R726K | with no effect
R726A | with no effect
R726E | with no effect
A739K | with no effect
A739E | with no effect
N716A | with no effect
N716E | with no effect

Variant | effect of a mutation on the interaction
N716K | with no effect
L709E | with no effect
L709A | with no effect
L709K | with no effect
A746K | with no effect
A746E | with no effect
A754K | with no effect
A754E | with no effect
A754G | disrupting interaction strength
L757E | with no effect
L757A | with no effect
L757I | disrupting interaction strength
L757K | with no effect
A708K | with no effect
A708E | with no effect
E714K | with no effect
E714A | with no effect
G718S | disrupting interaction strength
G718A | with no effect
G718K | with no effect
G718E | with no effect
I707K | with no effect
I707E | with no effect
D711A | with no effect
D711E | with no effect
D711K | with no effect

Variant | effect of a mutation on the interaction
E715A | with no effect
E715K | with no effect
L766A | with no effect
L766K | with no effect
L766E | with no effect
D762A | with no effect
D762K | with no effect
D762E | with no effect
F721S | disrupting interaction strength
F721E | with no effect
F721A | with no effect
F721K | with no effect
L759A | with no effect
L759K | with no effect
L759E | with no effect
Q760K | with no effect
Q760E | with no effect
Q760A | with no effect
L720E | with no effect
L720A | with no effect
L720K | with no effect
V713E | with no effect
V713A | with no effect
V713K | with no effect
G767K | with no effect
G767A | with no effect

Variant | effect of a mutation on the interaction
G767E | with no effect
T731E | with no effect
T731A | with no effect
T731K | with no effect
V749A | with no effect
V749E | disrupting interaction strength
V749K | with no effect
T763K | with no effect
T763A | with no effect
T763E | with no effect
L736K | with no effect
L736A | with no effect
L736E | with no effect
A712E | with no effect
A712K | with no effect
S723K | with no effect
S723E | with no effect
S723A | disrupting interaction strength
E765A | with no effect
E765K | with no effect
Q722T | disrupting interaction strength
Q722K | with no effect
Q722A | with no effect
Q722E | with no effect
I751K | with no effect
I751A | with no effect

Variant | effect of a mutation on the interaction
I751E | with no effect
T725K | with no effect
T725E | with no effect
T725A | with no effect
L737K | with no effect
L737A | with no effect
L737E | with no effect
K728E | with no effect
K728A | with no effect
D747N | disrupting interaction strength
D747E | with no effect
D747K | disrupting interaction strength
D747A | with no effect
I738K | disrupting interaction strength
I738A | disrupting interaction strength
I738E | with no effect
F724E | with no effect
F724A | with no effect
F724K | with no effect
S745A | with no effect
S745E | with no effect
S745K | with no effect

Variants of: B1
Conditions: with bbs1_human BBS1, Q8NFJ9
Remark: another data set of the same source

Variant | effect of a mutation on the interaction
S745E | disrupting interaction strength
